This is an account of results in paper PMC3488251 (Nucleic Acids Research, 2012).

The test has as its target T1, XPF (UniProt Q92889 1-916).
T1 sequence (looked up): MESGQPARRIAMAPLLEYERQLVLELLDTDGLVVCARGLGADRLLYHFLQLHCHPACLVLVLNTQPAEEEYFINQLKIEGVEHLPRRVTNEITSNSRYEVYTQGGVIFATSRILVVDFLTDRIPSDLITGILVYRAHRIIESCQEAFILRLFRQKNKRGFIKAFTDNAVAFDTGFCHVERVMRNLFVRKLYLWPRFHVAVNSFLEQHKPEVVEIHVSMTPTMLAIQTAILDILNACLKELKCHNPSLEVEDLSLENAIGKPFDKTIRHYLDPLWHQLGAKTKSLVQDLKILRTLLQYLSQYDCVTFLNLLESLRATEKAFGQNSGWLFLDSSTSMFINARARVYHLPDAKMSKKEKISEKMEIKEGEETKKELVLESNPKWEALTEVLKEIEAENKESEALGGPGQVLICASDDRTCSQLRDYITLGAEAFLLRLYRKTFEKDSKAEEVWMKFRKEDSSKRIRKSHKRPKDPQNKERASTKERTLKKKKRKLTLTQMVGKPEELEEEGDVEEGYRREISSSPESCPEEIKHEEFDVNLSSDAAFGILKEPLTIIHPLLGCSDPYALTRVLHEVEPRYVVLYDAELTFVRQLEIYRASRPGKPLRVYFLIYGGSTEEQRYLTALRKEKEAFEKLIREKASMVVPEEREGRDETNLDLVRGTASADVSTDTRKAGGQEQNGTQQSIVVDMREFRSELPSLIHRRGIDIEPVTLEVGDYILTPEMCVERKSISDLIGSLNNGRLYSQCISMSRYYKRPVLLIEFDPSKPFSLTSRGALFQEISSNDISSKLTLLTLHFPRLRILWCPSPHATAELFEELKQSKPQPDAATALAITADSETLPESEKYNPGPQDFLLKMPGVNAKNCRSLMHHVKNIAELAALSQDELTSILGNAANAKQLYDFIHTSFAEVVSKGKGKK
In words: SPR.

B1: ERCC1 (natural protein, UniProt P07992 1-297, looked up)
chain: MDPGKDKEGVPQPSGPPARKKFVIPLDEDEVPPGVAKPLFRSTQSLPTVDTSAQAAPQTYAEYAISQPLEGAGATCPTGSEPLAGETPNQALKPGAKSNSIIVSPRQRGNPVLKFVRNVPWEFGDVIPDYVLGQSTCALFLSLRYHNLHPDYIHGRLQSLGKNFALRVLLVQVDVKDPQQALKELAKMCILADCTLILAWSPEEAGRYLETYKAYEQKPADLLMEKLEQDFVSRVTECLTTVKSVNKTDSQTLLTTFGSLEQLIAASREDLALCPGLGPQKARRLFDVLHEPFLKVP
B1: the Kd was roughly 5 nM.
